Measured values reported in article PMC7198388, “Radiohybrid Ligands: A Novel Tracer Concept Exemplified by ^18F- or ^68Ga-Labeled rhPSMA Inhibitors” (Journal of Nuclear Medicine, 2020).
Like-named read-outs stand apart in the source and are kept apart here.

Experiments:
LNCaP cells = experiment: Internalization into LNCaP cells, normalized to (125I-I-BA)KuE; type: cell-based, human; conditions: LNCaP cells 1.25 x 10^5/well, 1 h, 37°C, ligand 0.5 nM/well; % of specific internalization of (125I-I-BA)KuE; 68Ga-19F or 18F free-chelator form; mean ± SD, n = 3
Experimental: Internalization studies were carried out according to a previously published procedure (1). Briefly, LNCaP cells were harvested 24 ± 2 hours before the experiment and seeded in poly -L-lysine coated 24-well plates […]
After removal of the culture medium, the cells were washed once with 500 µL DMEM -F12 (5% BSA) and left to equilibrate for at least 15 min at 37 °C in 200 µL DMEM-F12 (5% BSA). Each well was treated with either 25 µL of either DMEM-F12 (5% BSA, control) or 25 µL of a 100 µM PMPA (2-(Phosphonomethyl)-pentandioic acid, Tocris Bioscience, Bristol, UK) solution in PBS, for blockade. Next, 25 µL of the radioactive-labelled PSMA inhibitor (5.0 nM in PBS) was added and the cells were incubat ed at 37 °C for 60 min. The experiment was terminated by placing the 24 -well plate on ice for 3 min and consecutive removal of the medium. Each well was carefully washed with 250 µL of ice-cold HBSS. Both fractions from the first steps, representing the amount of free radioligand, were combined. Removal of surface bound activity was accomplished by incubation of the cells with 250 µL of ice-cold PMPA (10 µM in PBS) solution for 5 min […]
and rinsed again with another 250 µL of ice-cold PBS. The internalized activity was determined by incubation of the cells in 250 µL 1 M aqueous NaOH for at least 10 min. The obtained fractions were combined with those of the subsequent wash step with 250 µL 1 M aqueous NaOH. Each experiment (control and blockade) was performed in triplicate. Free, surface bound and internalized activity was quantified in a γ-counter. All internalization studies were accompanied by external reference studies, using […]
Data were corrected for non-specific

[1] = Biodistribution in LNCaP tumor-bearing CB-17 SCID mice; conditions: male, mouse, in vivo, iv, 0.2 nmol, total radioactivity, 1 h p.i., i.v. tail vein, mean ± SD, n = 3 (n = 4 for rhPSMA-10)
Description: Mice were used for experiments when tumors had grown to a diameter of 5–10 mm (3–6 wk after inoculation).
Selected organs were removed, weighed, and measured in a γ-counter.

human serum albumin = target: T1, human serum albumin (Homo sapiens, UniProt P02768); experiment: HSA binding by HPLC on Chiralpak HSA column; type: in vitro ADME; conditions: affinity HPLC, 50 mM NH4OAc pH 6.9/isopropanol gradient, r.t., 0.5 mg/mL, calibrated with nine reference substances, natGa-19F form
T1 construct: purchased Daicel H13H-2433
Experimental: with water (10 mL). The purified product was eluted with 50% aqueous ethanol (2 mL), phosphate buffered saline (PBS, 1 mL) and again water (1 mL). After removing ethanol in vacuo, purity of the radiolabelled compounds was determined by radio-HPLC and radio-TLC (ITLC-SG chromatography paper, mobile phase: 0.1 M trisodium citrate and Silica gel 60 RP-18 F254s, mobile phase: 3:2 mixture (v/v) of MeCN in H2O supplemented with 10% of 2 M NaOAc solution and 1% of TFA).
6. Human Serum Albumin (HSA) Binding
HSA binding of the PSMA-addressing ligands was determined according to a previously published procedure via HPLC (7). A Chiralpak HSA column (50 x 3 mm, 5 μm, H13H-2433, Daicel, Tokyo, Japan) […]
literature, in the range of 13 to 99% (7,8). All substances, including the examined PSMA ligands, were […]
final concentration of 0.5 mg/mL.
(Northampton, United States).
Affinity determinations (IC50)
The PSMA affinity (IC50) determinations and synthesis of the radioiodinated reference ligand (((S)-1- […]
described previously (1). Briefly, the respective ligand was diluted (serial dilution 10-4 to 10-10) in Hank’s balanced salt solution (HBSS, Biochrom). In the case of metal-complexed ligands, the crude reaction mixture containing the purified metal-complexed inhibitor and remaining metal nitrate, was diluted THE JOURNAL OF NUCLEAR MEDICINE • Vol. 61 • No. 5 • May 2020 Wurzer et al.

[2] = read-out: Biodistribution, Adrenals
[3] = read-out: Biodistribution, Blood
[4] = read-out: Biodistribution, Bone
[5] = read-out: Biodistribution, Heart
[6] = read-out: Biodistribution, Intestine
[7] = read-out: Biodistribution, Kidneys
[8] = read-out: Biodistribution, Liver
[9] = read-out: Biodistribution, Lung
[10] = read-out: Biodistribution, Muscle
[11] = read-out: Biodistribution, Pancreas
[12] = read-out: Biodistribution, Spleen
[13] = read-out: Biodistribution, Stomach
[14] = LNCaP tumor, read-out: Biodistribution, Tumor

T1 sequence (P02768 25-609): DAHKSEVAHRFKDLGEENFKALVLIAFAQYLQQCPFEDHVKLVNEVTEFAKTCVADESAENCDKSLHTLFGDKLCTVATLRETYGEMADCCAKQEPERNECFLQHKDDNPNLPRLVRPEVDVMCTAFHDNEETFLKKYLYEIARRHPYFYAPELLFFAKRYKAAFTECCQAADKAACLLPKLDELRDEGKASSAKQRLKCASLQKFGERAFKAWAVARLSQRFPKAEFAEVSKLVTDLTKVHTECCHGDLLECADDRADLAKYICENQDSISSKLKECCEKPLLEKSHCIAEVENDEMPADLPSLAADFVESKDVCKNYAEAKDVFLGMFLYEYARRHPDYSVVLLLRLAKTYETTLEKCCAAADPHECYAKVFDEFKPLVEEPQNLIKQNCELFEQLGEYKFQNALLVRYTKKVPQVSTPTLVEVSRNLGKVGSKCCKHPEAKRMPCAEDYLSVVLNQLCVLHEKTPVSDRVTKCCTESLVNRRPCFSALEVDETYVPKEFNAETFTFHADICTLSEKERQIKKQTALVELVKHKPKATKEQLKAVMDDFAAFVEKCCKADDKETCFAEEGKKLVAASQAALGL

| Compound | Internalization (LNCaP cells) | tissue uptake at 1 h [1, 2] [%ID/g] | tissue uptake at 1 h [1, 3] [%ID/g] | tissue uptake at 1 h [1, 4] [%ID/g] | tissue uptake at 1 h [1, 5] [%ID/g] | tissue uptake at 1 h [1, 6] [%ID/g] | tissue uptake at 1 h [1, 7] [%ID/g] | tissue uptake at 1 h [1, 8] [%ID/g] | tissue uptake at 1 h [1, 9] [%ID/g] | tissue uptake at 1 h [1, 10] [%ID/g] | tissue uptake at 1 h [1, 11] [%ID/g] | tissue uptake at 1 h [1, 12] [%ID/g] | tissue uptake at 1 h [1, 13] [%ID/g] | tissue uptake at 1 h [1, 14] [%ID/g] | HSA-binding (human serum albumin) [%] |
| --- | --- | --- | --- | --- | --- | --- | --- | --- | --- | --- | --- | --- | --- | --- | --- |
| CC(C)(C)[Si](F)(c1ccc(C(=O)NC[C@@H](C(=O)N[C@H](CCCCNC(=O)CCCCCCC(=O)NCCCC[C@H](NC(=O)N[C@@H](CCC(=O)O)C(=O)O)C(=O)O)C(=O)O)n2cc(CNC(=O)CCP(=O)(O)CN3CCN(CP(=O)(O)CCC(=O)O)CCN(CP(=O)(O)CCC(=O)O)CC3)nn2)cc1)C(C)(C)C [68/natGa-19/18F-rhPSMA-5, metal not drawn] | 43 ± 3 % of reference |  |  |  |  |  |  |  |  |  |  |  |  |  |  |
| CC(C)(C)[Si](F)(c1ccc(C(=O)N[C@H](CNC(=O)CCC(C(=O)O)N2CCN(CC(=O)O)CCN(CC(=O)O)CCN(CC(=O)O)CC2)C(=O)N[C@H](CCCCNC(=O)CCC(=O)NCCC[C@@H](NC(=O)CC[C@H](NC(=O)N[C@@H](CCC(=O)O)C(=O)O)C(=O)O)C(=O)O)C(=O)O)cc1)C(C)(C)C (some centres unmarked) [68/natGa-19/18F-rhPSMA-8, metal not drawn] | 98 ± 12 % of reference | 2.2 ± 0.8 | 1.7 ± 0.1 | 0.32 ± 0.07 | 0.93 ± 0.08 | 0.35 ± 0.01 | 82.3 ± 5.9 | 0.79 ± 0.17 | 1.3 ± 0.2 | 0.24 ± 0.02 | 0.48 ± 0.11 | 6.3 ± 1.5 | 0.42 ± 0.11 | 6.5 ± 0.8 | 97 |
| CC(C)(C)[Si](F)(c1ccc(C(=O)NC[C@@H](C(=O)N[C@H](CCCCNC(=O)CCC(=O)NCCC[C@@H](NC(=O)CC[C@H](NC(=O)N[C@@H](CCC(=O)O)C(=O)O)C(=O)O)C(=O)O)C(=O)O)n2cc(CNC(=O)CCP(=O)(O)CN3CCN(CP(=O)(O)CCC(=O)O)CCN(CP(=O)(O)CCC(=O)O)CC3)nn2)cc1)C(C)(C)C [68/natGa-19/18F-rhPSMA-9, metal not drawn] | 180 ± 12 % of reference | 2.7 ± 0.2 | 0.46 ± 0.11 | 0.18 ± 0.05 | 0.48 ± 0.17 | 0.44 ± 0.34 | 54.9 ± 3 | 0.42 ± 0.07 | 0.94 ± 0.2 | 0.19 ± 0.06 | 0.39 ± 0.09 | 25.4 ± 5.2 | 0.48 ± 0.4 | 7.2 ± 0.6 | 95 |
| CC(C)(C)[Si](F)(c1ccc(C(=O)NC[C@@H](NC(=O)CCC(C(=O)O)N2CCN(CC(=O)O)CCN(CC(=O)O)CCN(CC(=O)O)CC2)C(=O)N[C@H](CCCCNC(=O)CCCCCCC(=O)NCCCC[C@H](NC(=O)N[C@@H](CCC(=O)O)C(=O)O)C(=O)O)C(=O)O)cc1)C(C)(C)C (some centres unmarked) [68/natGa-19/18F-rhPSMA-6, metal not drawn] | 33 ± 2 % of reference |  |  |  |  |  |  |  |  |  |  |  |  |  |  |
